Results as given in patent US20130064825A1 (Amgen, published 2013).

B1: mouse PCSK9, 8xHIS tagged (enzyme, UniProt Q80W65 35-694, looked up)
chain: QDEDGDYEELMLALPSQEDGLADEAAHVATATFRRCSKEAWRLPGTYIVVLMEETQRLQIEQTAHRLQTRAARRGYVIKVLHIFYDLFPGFLVKMSSDLLGLALKLPHVEYIEEDSFVFAQSIPWNLERIIPAWHQTEEDRSPDGSSQVEVYLLDTSIQGAHREIEGRVTITDFNSVPEEDGTRFHRQASKCDSHGTHLAGVVSGRDAGVAKGTSLHSLRVLNCQGKGTVSGTLIGLEFIRKSQLIQPSGPLVVLLPLAGGYSRILNAACRHLARTGVVLVAAAGNFRDDACLYSPASAPEVITVGATNAQDQPVTLGTLGTNFGRCVDLFAPGKDIIGASSDCSTCFMSQSGTSQAAAHVAGIVARMLSREPTLTLAELRQRLIHFSTKDVINMAWFPEDQQVLTPNLVATLPPSTHETGGQLLCRTVWSAHSGPTRTATATARCAPEEELLSCSSFSRSGRRRGDWIEAIGGQQVCKALNAFGGEGVYAVARCCLVPRANCSIHNTPAARAGLETHVHCHQKDHVLTGCSFHWEVEDLSVRRQPALRSRRQPGQCVGHQAASVYASCCHAPGLECKIKEHGISGPSEQVTVACEAGWTLTGCNVLPGASLTLGAYSVDNLCVARVHDTARADRTSGEATVAAAICCRSRPSAKASWVQ
notes: also called mPCSK9-8xHIS; mPCSK9; not shown: 8xHIS tag
B2: 21B12, anti-PCSK9 huIgG4 (antibody, V domains shown)
VH: QVQLVQSGAEVKKPGASVKVSCKASGYTLTSYGISWVRQAPGQGLEWMGWVSFYNGNTNYAQKLQGRGTMTTDPSTSTAYMELRSLRSDDTAVYYCARGYGMDVWGQGTTVTVSS
VL: QSALTQPASVSGSPGQSITISCTGTSSDVGGYNSVSWYQQHPGKAPKLMIYEVSNRPSGVSNRFSGSKSGNTASLTISGLQAEDEADYYCNSYTSTSMVFGGGTKLTVLQ
notes: also called 21B12.1; 21B12 IgG4
B3: 16F12, anti-PCSK9 huIgG4 (antibody, V domains shown)
VH: QVHLVESGGGVVQPGRSLRLSCAASGFTFNSFGMHWVRQAPGKGLEWVALIWSDGSDEYYADSVKGRFTISRDNSKNTLYLQMNSLRAEDTAVYYCARAIAALYYYYGMDVWGQGTTVTVSS
VL: QSVLTQPPSVSAAPGQKVTISCSGSSSNIGNNFVSWYQQLPGTAPKLLIYDYNKRPSGIPDRFSGSKSGTSATLGITGLQTGDEADYYCGTWDSSLSAYVFGTGTRVTVLQ
notes: also called 16F12.1
B4: 11F1, anti-PCSK9 antibody (antibody, V domains shown)
VH: EVQLVESGGGLVQPGGSLRLSCAASGFTFSNYWMSWVRQAPGKGLEWVASIKQDGSEKYYVDSVKGRFAISRDNAKNSLFLQMNSLRAEDTAVYYCARDLVLMVYDIDYYYYGMDVWGQGTTVTVSS
VL: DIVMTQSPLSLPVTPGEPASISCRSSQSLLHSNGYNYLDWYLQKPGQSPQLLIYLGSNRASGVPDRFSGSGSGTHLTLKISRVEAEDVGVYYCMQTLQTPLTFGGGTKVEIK
notes: it was detected with anti-human Fc

Assays:
31H4, anti-PCSK9 huIgG4 = biological target: T1, 31H4, anti-PCSK9 huIgG4; test: KinExA; mPCSK9 is varied, 31H4 is fixed at 100 pM; free 31H4.1 measured
T1 construct: also called 31H4.1; 31H4 IgG4

16F12, anti-PCSK9 huIgG4 = biological target: B3; test: KinExA; mPCSK9 is varied, 16F12 is fixed at 100 pM; free 16F12 measured
[1] = biological target: B1; test: Biacore solution equilibrium assay: PCSK9 mixed with 21B12.1, free PCSK9 read on immobilised 21B12
[2] = biological target: B1; test: SPR (Biacore 2000), antibody amine-coupled on CM5 chip, PCSK9 injected, pH 7.4; BIAcore (Table 7.1), not the assay of Table 8.2
[3] = biological target: B1; test: KinExA solution equilibrium titration; title: 100pM 16F12 + (1pM ~ 10nM) mPCSK9
[4] = biological target: B1; test: SPR (Biacore 2000), antibody amine-coupled on CM5 chip, PCSK9 injected, pH 7.4
[5] = biological target: T2, human PCSK9 (proprotein convertase subtilisin/kexin type 9), wild type (human, UniProt Q8NBP7 31-692); test: competition ELISA: biotinylated WT PCSK9 (100 ng/mL) pre-incubated with 11F1, binding to captured LDLR; average of 3
T2 construct: also called hPCSK9; WT PCSK9

human PCSK9 D374Y mutant [6] = biological target: T3, human PCSK9 D374Y mutant (human, UniProt Q8NBP7 31-692, biotinylated (sites not given) in the ELISA formats); test: competition ELISA: biotinylated D374Y PCSK9 (20 ng/mL) pre-incubated with 11F1, binding to captured LDLR
T3 construct: also called D374Y PCSK9; huPCSK9 (D374Y)

furin (R&D Systems) = furin (R&D Systems) (UniProt P09958 108-715, limits assumed); test: competition ELISA: 0.4 ug/mL 11F1 pre-incubated with soluble proprotein convertase (furin inhibitor present), then added to plate-captured biotinylated PCSK9; OD450
human PCSK9 D374Y mutant [7] = biological target: T3, human PCSK9 D374Y mutant; test: competition ELISA: biotinylated D374Y PCSK9 (20 ng/mL) pre-incubated with 11F1, binding to captured LDLR; average of 3
[8] = biological target: T2, human PCSK9 (proprotein convertase …); test: competition ELISA: biotinylated WT PCSK9 (100 ng/mL) pre-incubated with 11F1, binding to captured LDLR
human PCSK9 D374Y mutant [9] = biological target: T3, human PCSK9 D374Y mutant; test: cell-based or functional assay
[10] = biological target: T2, human PCSK9 (proprotein convertase …); test: cell-based or functional assay
human PCSK9 D374Y mutant [11] = biological target: T3, human PCSK9 D374Y mutant; test: blocking ELISA: biotinylated D374Y PCSK9 (20 ng/mL) pre-incubated with 11F1, added to plate-captured LDLR; blocked ligand LDLR; streptavidin-HRP, OD450
[12] = biological target: T2, human PCSK9 (proprotein convertase …); test: blocking ELISA: biotinylated WT PCSK9 (100 ng/mL) pre-incubated with 11F1, added to plate-captured LDLR; blocked ligand LDLR; streptavidin-HRP, OD450

T1 sequence (VL, as listed by the source, chain 2 of 2, other chains not shown): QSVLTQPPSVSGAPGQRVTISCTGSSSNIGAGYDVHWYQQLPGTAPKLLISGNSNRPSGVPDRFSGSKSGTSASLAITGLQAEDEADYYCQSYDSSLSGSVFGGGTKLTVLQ
Sequence of furin (R&D Systems) (P09958 108-715 limits assumed): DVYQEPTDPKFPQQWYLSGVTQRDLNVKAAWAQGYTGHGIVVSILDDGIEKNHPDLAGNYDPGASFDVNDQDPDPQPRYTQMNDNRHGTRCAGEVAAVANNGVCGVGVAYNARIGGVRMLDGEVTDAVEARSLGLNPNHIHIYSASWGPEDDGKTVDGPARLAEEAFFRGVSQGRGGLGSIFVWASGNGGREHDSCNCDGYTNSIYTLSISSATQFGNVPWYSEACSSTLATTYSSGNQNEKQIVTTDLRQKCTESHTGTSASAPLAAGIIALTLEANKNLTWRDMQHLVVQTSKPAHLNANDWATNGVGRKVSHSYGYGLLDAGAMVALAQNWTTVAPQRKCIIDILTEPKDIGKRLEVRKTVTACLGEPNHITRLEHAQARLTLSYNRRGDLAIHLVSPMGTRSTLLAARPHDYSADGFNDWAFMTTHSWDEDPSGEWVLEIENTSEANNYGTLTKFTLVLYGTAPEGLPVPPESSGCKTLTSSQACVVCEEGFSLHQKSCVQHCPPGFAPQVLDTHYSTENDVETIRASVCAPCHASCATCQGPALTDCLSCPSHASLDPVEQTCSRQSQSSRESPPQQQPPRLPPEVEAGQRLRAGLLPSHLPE

Binder: B1
IC50 (read off the curve) (31H4, anti-PCSK9 huIgG4): ~0.6 nM | IC50 (read off the curve) (16F12, anti-PCSK9 huIgG4): ~0.4 nM

Binder: B2
Kd [1]: 17 nM | Kd [2]: 460 nM

Binder: B3
Kd [3]: 0.223 nM | Kd [4]: 6.4 nM

Binder: B4
IC50 [5]: 5.9 nM | IC50 (human PCSK9 D374Y mutant [6]): 7.3 to 10.1 nM | binding result (furin (R&D Systems)): no binding (tested: 20 ug/ml) | IC50 (human PCSK9 D374Y mutant [7]): 9.1 nM | IC50 [8]: 4.4 to 8.1 nM | EC50, LDL uptake in HepG2 cells (BODIPY-LDL) (human PCSK9 D374Y mutant [9]): 35.3 nM | EC50, LDL uptake in HepG2 cells (BODIPY-LDL) [10]: 124 nM | IC50 (read off the curve) (human PCSK9 D374Y mutant [11]): ~10 nM | IC50 (read off the curve) [12]: ~5 nM
